In paper PMC7567689, “High-level expression of aryl-alcohol oxidase 2 from Pleurotus eryngii in Pichia pastoris for production of fragrances and bioactive precursors” (Applied Microbiology and Biotechnology, 2020):

Columns and labels:
PeAAO2 [1] = target: T1, PeAAO2 (Pleurotus eryngii, UniProt D3YBH4); experiment: direct UV assay of cuminaldehyde formation at […] nm, Michaelis-Menten fit; format: biochemical; conditions: 100 mM sodium phosphate pH 6.0, 25 °C; O2 as co-substrate; glycosylated enzyme; read-out: PeAAO2 from P. eryngii expressed in P. pastoris^a
T1 construct: no tag mentioned

PeAAO2 [2] = target: T1, PeAAO2; experiment: direct UV assay of veratraldehyde formation at […] nm, Michaelis-Menten fit; format: biochemical; conditions: 100 mM sodium phosphate pH 6.0, 25 °C; O2 as co-substrate; glycosylated enzyme; read-out: PeAAO2 from P. eryngii expressed in P. pastoris^a
OC/C=C/c1ccccc1 = test system: T2, OC/C=C/c1ccccc1; experiment: purified protein; format: biochemical, Pleurotus eryngii; conditions: 100 mM sodium phosphate pH 6.0, 25 °C, O2 as co-substrate, glycosylated enzyme, substrate in DMSO
T2 construct: no tag mentioned

OCc1ccc2c(c1)OCO2 = test system: T3, OCc1ccc2c(c1)OCO2; experiment: purified protein; format: biochemical, Pleurotus eryngii; conditions: 100 mM sodium phosphate pH 6.0, 25 °C, O2 as co-substrate, glycosylated enzyme
T3 construct: no tag mentioned

C/C=C/C=C/CO = test system: T4, C/C=C/C=C/CO; experiment: purified protein; format: biochemical, Pleurotus eryngii; conditions: 100 mM sodium phosphate pH 6.0, 25 °C, O2 as co-substrate, glycosylated enzyme
T4 construct: no tag mentioned

OCc1ccccc1 = test system: T5, OCc1ccccc1; experiment: purified protein; format: biochemical, Pleurotus eryngii; conditions: 100 mM sodium phosphate pH 6.0, 25 °C, O2 as co-substrate, glycosylated enzyme
T5 construct: no tag mentioned

T1 sequence (D3YBH4 28-593 limits assumed): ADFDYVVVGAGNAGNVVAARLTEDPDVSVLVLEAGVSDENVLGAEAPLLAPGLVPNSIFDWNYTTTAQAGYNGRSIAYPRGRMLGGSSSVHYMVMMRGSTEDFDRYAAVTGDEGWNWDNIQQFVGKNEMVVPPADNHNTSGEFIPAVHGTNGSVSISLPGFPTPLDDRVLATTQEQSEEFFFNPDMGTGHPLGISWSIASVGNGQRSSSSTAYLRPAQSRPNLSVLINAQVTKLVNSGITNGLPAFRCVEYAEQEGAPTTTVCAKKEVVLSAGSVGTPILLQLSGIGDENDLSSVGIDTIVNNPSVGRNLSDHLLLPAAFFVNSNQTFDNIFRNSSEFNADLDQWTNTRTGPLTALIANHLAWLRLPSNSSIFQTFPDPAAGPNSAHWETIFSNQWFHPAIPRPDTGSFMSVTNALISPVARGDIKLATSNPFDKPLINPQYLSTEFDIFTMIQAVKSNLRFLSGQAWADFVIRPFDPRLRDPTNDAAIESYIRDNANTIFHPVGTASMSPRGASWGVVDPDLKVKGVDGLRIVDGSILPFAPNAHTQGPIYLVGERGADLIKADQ

## CC(C)c1ccc(CO)cc1 [Cumic alcohol]
PeAAO2 [1]
  Km: 1910 ± 42.4 µM

## COc1ccc(CO)cc1OC [Veratryl alcohol]
PeAAO2 [2]
  Km: 447 ± 7.5 µM

## PeAAO2 (Pleurotus eryngii)
OC/C=C/c1ccccc1
  Km: 2740 ± 103 µM
  kcat: 125.5 ± 0.1 s⁻¹
  kcat/Km: 45800 M⁻¹ s⁻¹
OCc1ccc2c(c1)OCO2
  Km: 59.1 ± 3.0 µM
  kcat: 35.5 ± 0.02 s⁻¹
  kcat/Km: 600000 M⁻¹ s⁻¹
C/C=C/C=C/CO
  Km: 143.6 ± 11.5 µM
  kcat: 68.8 ± 0.05 s⁻¹
  kcat/Km: 479000 M⁻¹ s⁻¹
OCc1ccccc1
  Km: 599.6 ± 18.7 µM
  kcat: 12.8 ± 0.01 s⁻¹
  kcat/Km: 21400 M⁻¹ s⁻¹
